# In patent US20090175866A1, “TREATMENT OF B-CELL MALIGNANCIES” (priority 2004, published 2009):
# B1: PRO-001: human anti-FGFR3 Fab from HuCAL library; VH-CDR3 SEQ ID NO:1, VL-CDR3 SEQ ID NO:10; VH SEQ ID NO:19, VL SEQ ID NO:28 (antibody, V domains shown)
# VH: QVQLQQSGPGLVKPSQTLSLTCAISGDSVSSNSAAWNWIRQSPGRGLEWLGRTYYRSKWYNDYAVSVKSRITINPDTSKNQFSLQLNSVTPEDTAVYYCARSYYPDFDYWGQGTLVTVSS
# VL: DIELTQPPSVSVAPGQTARISCSGDALGDKYASWYQQKPGQAPVLVIYDDSDRPSGIPERFSGSNSGNTATLTISGTQAEDEADYYCQSYDGPDLWVFGGGTKLTVLGQ
# Assays:
# [1] = test system: FDCP-FGFR3^S249C cells; assay: FDCP-FGFR3^S249C xenograft tumor model in nude mice; assay type: in vivo; conditions: PRO-001 Fab I.P.
# Procedure: FIG. 8B is a graph showing the effect of PRO-001 on an FGFR3-driven xenograft tumor model. Nude mice (3 in each group), were injected S.C. at 2 locations, one on each flank (a—right flank, b—left flank), with 2×10^6 FDCP-FGFR3^S249C cells each. A week later, mice were randomized to receive PRO-001 by I.P. injection according to the schedule described in Table I or PBS as control. Tumor volume was estimated from measurements in 3 dimensions at 22 or 29 days post cell injection.
# FDCP-FGFP3^S249C cells were washed 3 times in PBS then resuspended at 2×10^6 cells/200 μl PBS. The cells were injected subcutaneously (S.C.) to CD1 nude adult females (Harlan, Laboratories, Israel) with a 25 G needle at one or both mouse flanks. Treatment was initiated one week post cell inoculation at which time mice were randomized to receive PRO-001 or an equal volume of PBS alone. Dosing was preformed twice weekly by intraperitoneal (I.P.) injection for 3 weeks. Mice were followed every 2-4 days and developing tumors were measured at 3 dimensions using a caliper. Tumor volume was estimated by multiplying these 3 values.
# Nude mice were injected subcutaneously at 2 locations; one on each flank, with 2×10^6 FDCP-FGFR3^S249C cells each. One week post cell injection, mice were treated with PRO-001 Fab. […]
# [2] = molecular target: T1, FGFR3-Y373C (Homo sapiens, UniProt P22607, Y373C); assay: FGF-stimulated growth of B9 cells expressing Y373C-FGFR3; assay type: cell-based
# T1 construct: expressed in transfected cells; host or cells: B9 cells
# T1 sequence (P22607 23-806 Y373C): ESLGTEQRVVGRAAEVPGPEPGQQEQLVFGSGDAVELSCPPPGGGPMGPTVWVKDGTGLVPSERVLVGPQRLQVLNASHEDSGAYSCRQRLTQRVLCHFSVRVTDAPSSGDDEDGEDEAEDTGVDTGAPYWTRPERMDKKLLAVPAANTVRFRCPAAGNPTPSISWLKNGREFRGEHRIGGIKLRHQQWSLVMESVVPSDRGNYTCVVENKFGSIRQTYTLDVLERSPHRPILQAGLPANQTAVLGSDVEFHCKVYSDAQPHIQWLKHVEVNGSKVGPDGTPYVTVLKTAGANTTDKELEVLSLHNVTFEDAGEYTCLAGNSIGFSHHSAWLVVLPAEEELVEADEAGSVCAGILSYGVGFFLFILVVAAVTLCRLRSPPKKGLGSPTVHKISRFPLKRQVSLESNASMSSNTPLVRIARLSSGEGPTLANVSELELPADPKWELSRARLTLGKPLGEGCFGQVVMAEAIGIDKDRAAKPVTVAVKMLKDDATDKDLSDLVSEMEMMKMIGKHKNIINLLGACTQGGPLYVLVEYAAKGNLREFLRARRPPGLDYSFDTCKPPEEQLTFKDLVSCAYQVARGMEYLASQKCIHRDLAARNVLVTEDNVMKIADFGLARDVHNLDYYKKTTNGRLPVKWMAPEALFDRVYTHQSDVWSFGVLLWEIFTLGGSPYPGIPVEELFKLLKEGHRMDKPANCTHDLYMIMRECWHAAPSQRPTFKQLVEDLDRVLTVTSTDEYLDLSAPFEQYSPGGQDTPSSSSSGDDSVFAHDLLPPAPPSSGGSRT
# Procedure: Non-transformed rat chondrocyte cell line expressing PGFR3 in an inducible manner (RCJ-FGFR3) has been described previously (Rauchenberger R. et al. J. Biol. Chem. 2003; 278:38194-205). Cells were maintained in α-Minimum Essential Media supplemented with 15% fetal calf serum (FCS), 2 mM L-Glutamine, 100 U/ml penicillin, 100 μg/ml streptomycin, 600 μg/ml G418 (Gibco BRL, Ontario, Canada), 2 μg/ml Tetracyclin (Sigma, Ontario, Canada), and 50 μg/ml HygromycinB (Gibco BRL). FGFR3 expression was induced by removal of tetracyclin and serum starvation. […]
# Cell viability was assessed by 3-(4,5-dimethylthiazol)-2,5-diphenyl tetrazolium (MTT) or (2,3-bis(2-methoxy-4-nitro-5-sulphophenyl)-5-[(phenylamino) carbonyl]-2H-tetrazolium hydroxide (XTT) dye absorbance where indicated. Cells were seeded in 96-well plates at a density of 20,000 (FDCP-1 cells), 5,000 (B9 cells) or 25,000 cells (MM cell lines) per well in culture medium. Cells were incubated in the absence or presence of one of the following cytokines: 10 ng/ml FGF9 and 5 μg/ml heparin, 1% murine IL-6, 50 ng/ml IGF-1 or 50 ng/ml human IL-6 where indicated and increasing concentrations of PRO-001, control antibody (purified human Fab) or 100 nM PD173074. […]
# [3] = molecular target: T2, WT FGFR3 (Homo sapiens, UniProt P22607); assay: Flow cytometry binding of PRO-001 Fab to B9-FGFR3^WT cells, with or without FGF
# T2 construct: expressed in transfected cells; host or cells: B9 cells
# T2 sequence (P22607 23-806): as the sequence (P22607 23-806 Y373C) above, with C351Y counted along it
# Description: FIG. 1A is a flow cytometry chart showing B9-FGFR WT (wild type) cells fluorescently labeled with PRO 001 followed by a PE-conjugated anti-human secondary antibody. The filled histogram indicates parental B9 cells (lacking FGFR3 expression); the dotted light line, B9-FGFR WT without aFGF; the solid dark line, B9-WT in the presence of aFGF. The Y axis represents counts indicating the amount of cells. The X axis represents fluorescence intensity.
# Cells (5×10^5) were washed in cold phosphate-buffered saline (PBS) and then incubated for 30 minutes with one of the following: PRO-001 Fab or a human Fab control antibody, rabbit anti-FGFR3 (100) or rabbit preimmune serum in PBS. The cells were then stained with PE-conjugated goat antihuman F(ab′)2 secondary antibody or goat anti-rabbit IgG-PE for 30 minutes on ice. Flow cytometry was performed on a FACSCaliber flow cytometer (BD Biosciences, San Jose, Calif.) and analyzed using Cellquest software (Becton Dickinson). To assess the ability of FGF ligand to compete for binding, cells were incubated in the presence or absence of 30 ng/ml FGF and 5 μg/ml heparin for 30 minutes and then stained with PRO-001 Fab as describe above.
# The human anti-FGFR3 Fab PRO-001 was isolated from the Hu-CAL®-Fab-1 human combinatorial library using a differential whole cell panning approach (Rauchenberger R, et al. J Biol. Chem. 2003; 278:38194-205). […]
molecule,measurement,setting,value
B1,Tumor growth relative to control mice,"[1]; four weeks post cell injection, 400-275 μg per dose",10%
same,Toxicities and weight loss over the treatment period,[1]; nude mice,No major toxicities or significant weight loss
same,"IC50, FGF-stimulated growth of cells expressing Y373C-FGFR3",[2],approximately 3 μg/ml
same,Binding to B9-FGFR3^WT cells on addition of FGF,[3]; 30 ng/ml FGF and 5 μg/ml heparin,can be reduced by addition of FGF
same,Binding to WT FGFR3 (FACS),"[3]; PRO-001 Fab, B9-FGFR3^WT cells",binds to WT FGFR3
